Test in all cases: cell-based or functional assay
Assay [1] has as its target T1, FLAG-Hs_FPR1 C-terminally fused to Renilla Luciferase 8 (human, UniProt P21462 1-350).
T1 sequence (looked up): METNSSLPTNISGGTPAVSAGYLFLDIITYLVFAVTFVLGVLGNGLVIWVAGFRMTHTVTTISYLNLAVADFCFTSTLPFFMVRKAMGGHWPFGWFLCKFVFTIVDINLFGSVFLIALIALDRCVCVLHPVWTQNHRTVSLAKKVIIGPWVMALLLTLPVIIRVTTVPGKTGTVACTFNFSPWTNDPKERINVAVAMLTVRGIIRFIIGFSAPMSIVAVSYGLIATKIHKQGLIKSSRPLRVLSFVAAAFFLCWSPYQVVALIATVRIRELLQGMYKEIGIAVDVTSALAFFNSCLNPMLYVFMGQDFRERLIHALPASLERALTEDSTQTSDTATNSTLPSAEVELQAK

The target of assay [2] is T2, FLAG-Hs_FPR2 C-terminally fused to Renilla Luciferase 8 (human, UniProt P25090 1-351).
T2 sequence (looked up): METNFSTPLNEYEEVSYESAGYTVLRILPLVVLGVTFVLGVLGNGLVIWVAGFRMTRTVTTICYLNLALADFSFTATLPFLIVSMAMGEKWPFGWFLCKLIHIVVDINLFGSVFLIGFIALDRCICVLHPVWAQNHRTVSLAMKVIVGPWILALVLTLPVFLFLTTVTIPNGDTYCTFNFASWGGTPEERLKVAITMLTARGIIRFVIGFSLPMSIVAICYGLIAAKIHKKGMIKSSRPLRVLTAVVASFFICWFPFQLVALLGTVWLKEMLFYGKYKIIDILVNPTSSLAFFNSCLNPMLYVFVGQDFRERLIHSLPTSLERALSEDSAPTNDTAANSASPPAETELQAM

For assay [3], the target named is T3, FLAG-Mm_Fpr1 C-terminally fused to Renilla Luciferase 8 (mouse, UniProt P33766 1-364).
T3 sequence (looked up): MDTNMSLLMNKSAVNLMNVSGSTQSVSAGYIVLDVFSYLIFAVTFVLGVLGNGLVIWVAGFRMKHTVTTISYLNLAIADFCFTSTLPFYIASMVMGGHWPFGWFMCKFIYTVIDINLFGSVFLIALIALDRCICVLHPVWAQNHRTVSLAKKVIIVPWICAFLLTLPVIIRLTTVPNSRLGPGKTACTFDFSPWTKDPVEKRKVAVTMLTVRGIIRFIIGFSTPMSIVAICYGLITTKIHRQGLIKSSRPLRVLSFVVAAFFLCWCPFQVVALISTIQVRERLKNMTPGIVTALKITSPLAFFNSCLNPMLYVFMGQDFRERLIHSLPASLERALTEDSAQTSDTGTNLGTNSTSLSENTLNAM

Assay [4] has as its target T4, FLAG-Mm_Fpr2 C-terminally fused to Renilla Luciferase 8 (mouse, UniProt O88536 1-351).
T4 sequence (looked up): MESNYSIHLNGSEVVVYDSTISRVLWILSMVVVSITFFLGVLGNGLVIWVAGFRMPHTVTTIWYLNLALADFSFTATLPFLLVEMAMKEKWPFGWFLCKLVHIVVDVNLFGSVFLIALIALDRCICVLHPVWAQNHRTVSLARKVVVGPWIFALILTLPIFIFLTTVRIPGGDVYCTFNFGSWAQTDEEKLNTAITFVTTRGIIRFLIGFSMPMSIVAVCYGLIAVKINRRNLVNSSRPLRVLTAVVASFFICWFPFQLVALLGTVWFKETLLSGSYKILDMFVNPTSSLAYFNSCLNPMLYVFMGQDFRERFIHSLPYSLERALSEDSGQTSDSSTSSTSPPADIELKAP

Assay [5] deals with T5, FLAG-tagged mouse Fpr1 (Mm_Fpr1) (mouse, UniProt P33766 1-364).
T5 sequence (looked up): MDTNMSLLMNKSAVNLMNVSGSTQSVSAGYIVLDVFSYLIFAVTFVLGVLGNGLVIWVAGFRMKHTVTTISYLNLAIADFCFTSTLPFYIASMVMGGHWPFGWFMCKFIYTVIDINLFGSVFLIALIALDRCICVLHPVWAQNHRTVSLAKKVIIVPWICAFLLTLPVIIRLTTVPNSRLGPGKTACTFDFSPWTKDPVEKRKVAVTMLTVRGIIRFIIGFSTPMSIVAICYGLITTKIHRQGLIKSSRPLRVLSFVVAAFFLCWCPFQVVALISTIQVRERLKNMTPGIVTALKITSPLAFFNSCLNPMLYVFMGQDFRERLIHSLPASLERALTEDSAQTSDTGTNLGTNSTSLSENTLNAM

The target of assay [6] is T6, FLAG-tagged mouse Fpr2 (Mm_Fpr2) (mouse, UniProt O88536 1-351).
T6 sequence (looked up): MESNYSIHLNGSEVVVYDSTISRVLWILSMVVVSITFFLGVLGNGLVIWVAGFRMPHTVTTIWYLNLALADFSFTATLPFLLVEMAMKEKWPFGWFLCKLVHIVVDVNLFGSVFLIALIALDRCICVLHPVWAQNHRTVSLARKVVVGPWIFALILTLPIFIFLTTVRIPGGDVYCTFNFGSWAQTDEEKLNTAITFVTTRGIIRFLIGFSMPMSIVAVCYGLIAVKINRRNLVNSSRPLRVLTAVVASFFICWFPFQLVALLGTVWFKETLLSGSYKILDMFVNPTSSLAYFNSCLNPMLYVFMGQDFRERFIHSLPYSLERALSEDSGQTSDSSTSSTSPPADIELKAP

Assay [7] has as its target T7, FLAG-tagged human FPR1 (Hs_FPR1) (human, UniProt P21462 1-350).
T7 sequence (looked up): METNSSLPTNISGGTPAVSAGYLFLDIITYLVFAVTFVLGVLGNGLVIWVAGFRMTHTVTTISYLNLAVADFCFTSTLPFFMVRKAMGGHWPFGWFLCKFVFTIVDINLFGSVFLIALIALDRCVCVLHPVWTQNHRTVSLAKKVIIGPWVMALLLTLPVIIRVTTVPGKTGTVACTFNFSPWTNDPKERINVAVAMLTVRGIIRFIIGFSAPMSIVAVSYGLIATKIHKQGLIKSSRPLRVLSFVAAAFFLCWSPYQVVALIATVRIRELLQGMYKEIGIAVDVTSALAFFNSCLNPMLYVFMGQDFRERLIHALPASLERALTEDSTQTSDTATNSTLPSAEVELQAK

Where no end group is shown, it is not given here. [ ]: non-standard residue; d: D form.

B1: WKYMVm (peptide)
peptide: WKYMV[dM]
notes: the last residue is the D form; the bought peptide is probably also an amide (surmise); source: bought: Tocris
On to B1, for which the “BRET of receptor-RLuc8 with Arrestin 3-YFP: Emax (% of 1 μM WKYMVm)” value in assay [1] amounted to 105%; in assay [2] it was 102%; in assay [3] it was 112%; in assay [4] it was 101%. For the same molecule, the “BRET of receptor-RLuc8 with Arrestin 3-YFP: Log EC50 (M)” value in assay [1] is -7.3 log M; in assay [2], -8.13 log M; in assay [3] it was -6.8 log M; in assay [4], -7.46 log M. The “receptor internalization (flow cytometry): Emax (% of 1 μM WKYMVm)” value was 108% in assay [5], 102% in assay [6] and 106% in assay [7]. Further, the “receptor internalization (flow cytometry): Log EC50 (M)” value in assay [5] was -8.01 log M; in assay [6], -7.66 log M; in assay [7] it was -7.49 log M.

Source of the values: publication PMC12881670, “Investigation into ligand selectivity and bias at the formyl peptide receptor family” (The Journal of Pharmacology and Experimental Therapeutics, 2025).
